Assay results reported in patent US20100303814A1 (VIVENTIA BIOTECHNOLOGIES, published 2010).
Where no end group is shown, it is not given here. The star is where a group is joined. Biotin = O=C1N[C@H]2[C@H](CS[C@H]2CCCCC(=O)*)N1

What was measured:
[1] = target: T1, PSPep3 (Biotin LCNASGAHALQ), negative peptide (human); assay: ELISA on peptide-coated plate
T1 construct: Synthetic peptide derived from PSCA, 1306.59 amu; also called PSPep3 (Negative)
T1 peptide: Biotin-LCNASGAHALQ
Method: (§1) Peptide solutions were diluted 1-in-100 with Hank's buffered saline solution (HBSS) containing 0.5% formaldehyde. 100 μL of diluted peptide solution was distributed to each well in a 96-well plate. The plates were incubated at room temperature for 1 hour. The supernatant was removed and the plates were placed uncovered in a 37° C. incubator for 16-18 hours. The peptide-coated plates were placed in plastic bags and stored at 2-8° C. until required.
(§2) The plates were washed as previously described with the wash buffer (PBS containing 0.5% Tween 20). The plates were incubated with 1:6000 dilution of anti-human IgG-HRP for one hour at room temperature. The plates were washed as previously described. 100 μL of TMB substrate (TMB peroxidase substrate KPL cat# 50-76-00) was added to each well and incubated for 5-10 minutes in the dark. The reaction was terminated by adding 100 μL of 1M phosphoric acid to each well. The optical density was measured at 450 nm using an ELISA plate reader.

[2] = target: T2, PSPep1 (Biotin TARIRAVGLLTVISK) (human); assay: ELISA on peptide-coated plate
T2 construct: Synthetic peptide, part of the immunogen of the commercial anti-PSCA antibodies, 1823.9 amu
T2 peptide: Biotin-TARIRAVGLLTVISK
Method: as §1, §2

[3] = target: T3, prostate stem cell antigen (PSCA) (human, UniProt O43653 12-83); assay: immunoprecipitation with VB1-213, in-solution digest, mass spectrometry
T3 sequence: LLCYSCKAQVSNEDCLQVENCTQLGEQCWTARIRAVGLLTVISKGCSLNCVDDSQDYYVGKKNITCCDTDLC
Method: A pre-clearing step using protein-G sepharose alone was the first step in the purification of the antigen prior to the addition of the antibody. In certain cases, pre-clearing was performed twice to add more stringency to the assay. A total of 50 μg of antibody was used as the precipitating agent in the mixture. The antigen-antibody mixtures were nutated overnight at 4° C. using buffer conditions that mimicked physiological conditions. Care was taken to ensure that protease inhibitors were used in every step of the antigen isolation process.
The extracted peptides were concentrated and desalted using μ-C18 columns and used for MS analysis. Two distinct proteins were identified, in all three cell lines, as “Mixture1”, consisting of HnRNPG+Prostate stem cell antigen (PSCA). HnRNPG and PSCA were identified as a “Mixture1”, each with 76% and 95% sequence coverage and a highly significant combined score of 413. The sequence coverage and peptides corresponding to PSCA are shown in FIGS. 18 and 19 and Table 7 (SEQ ID NO: 18 to 22). The peptides isolated by this method corresponding to HnRNPG as shown in Table 8 (SEQ ID NO: 72 to 110).

[4] = target: T4, antigen bound by VB1-213 on A-375 tumor cells; assay: flow cytometry saturation curve on A-375 cells, Lineweaver-Burk method
T4 construct: Placeholder target for the KD measured on whole A-375 cells; also called A-375 carcinoma cells
Method: Flow cytometry was used to assess binding affinity (C. A. Benedict, A. J. MacKrell, W. F. Anderson, J. Immunol. Methods 201, 223 (1997)). A range of antibody concentrations were tested against a fixed number of tumor cells (A-375) for 2 hours to obtain a saturation curve. Values and graphical analysis were generated using Sigma Plot (Jandel Scientific, San Rafael, Calif.). The inverse of the determined median fluorescence was plotted as a function of the inverse of antibody concentration to determine KD by the Lineweaver-Burk method.

binding result [1]: no binding | binding result [2]: no binding | binding result [3]: binds | Kd [4]: 627 nM
B1: VB1-213 monoclonal antibody (antibody, human IgG1, V domains shown)
VH: EVQLLESGGGLVQPGGSLRLSCAASGFTFRSYAMSWVRQAPGKGLEWVSTISGRGVTTYYADSVKGRFTISRDNSKNTLYLQMNSLRADDTALYYCAKDRTRYYGMDVWGQGTTVTVSS
VL: SYELTQPPSVSVSPGQTASITCSGNKLGDKYACWYQQKSGQSPVLVIYQDSKRPSGIPERFSGSNSGNTATLTISGTQALDEADYYCQAWDNSTAVFGGGTKLTVLG
notes: Human IgG1, lambda monoclonal antibody from a hybridoma (lymph node cells of an ovarian cancer patient fused with MFP-2); no constant regions for the IgG as tested
